From patent CN117327176A (NANJING RONGJIEKANG BIOTECHNOLOGY CO LTD, dated 2024) come the findings set out here.

B1: 单域抗体 1F3 (VHH, E. coli crude extract) (VHH)
VHH: ESGGGSVQAGGSLRLSCATSTSRFTYGSACMGWFRQSPGKEREQVAGIAMGVVTYYADSVKGRFTISQDNGKNTVDLQMDNLKPEDTAMYYCAAGPAHYNCYSASGGRYNYWGQGTQVTVSS
notes: Expressed from pMECS in E. coli and detected through an HA tag
B2: 单域抗体 2H3 (VHH, E. coli crude extract) (VHH)
VHH: B1 VHH with N100K, Y111I
notes: as for B1
B3: 单域抗体 212C7 (VHH, E. coli crude extract) (VHH)
VHH: B1 VHH with S6L, A9P
notes: as for B1
B4: 单域抗体 23G12 (VHH, E. coli crude extract) (VHH)
VHH: ESGGGSVQAGGSLRLSCATSRFTYGSACMGWFRQSPGKEREQVAGIAMGVVTYYADSVKGRFTISQDNGKNTVDLQMDNLKPEDTAMYYCATGPAHYKCYSASGGRYNYWGQGTQVTVSS
notes: as for B1
B5: 单域抗体 4F3 (VHH, E. coli crude extract) (VHH)
VHH: B4 VHH with F22Y, A27S, G69N, T92S, A95P
notes: as for B1
B6: 单域抗体 1A6 (VHH, E. coli crude extract) (VHH)
VHH: B4 VHH with F22Y, A27S, G30A, T92A, A95P, A102V
notes: as for B1
B7: 单域抗体 1A7 (VHH, E. coli crude extract) (VHH)
VHH: B4 VHH with S20P, F22Y, S26T, A27S, K38Y, E39Q, T92A
notes: as for B1
B8: 单域抗体 2D10 (VHH, E. coli crude extract) (VHH)
VHH: B4 VHH with E83D
notes: as for B1
B9: 单域抗体 27H4 (VHH, E. coli crude extract) (VHH)
VHH: B4 VHH with Q34H, S35A, A102P
notes: as for B1
B10: 单域抗体 1D1 (VHH, E. coli crude extract) (VHH)
VHH: B4 VHH with A9V, N108S, Y109D
notes: as for B1
B11: 单域抗体 2G5 (VHH, E. coli crude extract) (VHH)
VHH: B4 VHH with K98N
notes: as for B1
B12: 单域抗体 214D11 (VHH, E. coli crude extract) (VHH)
VHH: B4 VHH with N108D, Y109A
notes: as for B1
B13: 单域抗体 21H6 (VHH, E. coli crude extract) (VHH)
VHH: B4 VHH with F22W, S26T, K59E, G69E
notes: as for B1
B14: 单域抗体 4B2 (VHH, E. coli crude extract) (VHH)
VHH: B4 VHH with F22Y, T92A, K98L, N108T, Y109S
notes: as for B1
B15: 单域抗体 1B7 (VHH, E. coli crude extract) (VHH)
VHH: ESGGGSVQAGGSLRLSCTTSGYTYSSNCIGWFRQAPGKEREEIATISRVGEITFYADSVKGRFTISQDNTETTVFLQMNSLKPEDTAVYYCAASPPTYGGCPTRSRDYDKWGQGTQVTVSS
notes: as for B1
B16: 单域抗体 1F9 (VHH, E. coli crude extract) (VHH)
VHH: ESGGGSVQAGGSLRLSCATSRYTYNCMGWFRQSPGKEREQVAGIAMGVVTYYADSVKGRFTISQDNGKNTVDLQMDNLKPEDTAMYYCAAGPAHYKCYSPSGGRYNYWGQGTQVTVSS
notes: as for B1
B17: 单域抗体 4A1 (VHH, E. coli crude extract) (VHH)
VHH: B16 VHH with A90S, A93P, P100A
notes: as for B1
B18: 单域抗体 1H5 (VHH, E. coli crude extract) (VHH)
VHH: B16 VHH with S6L, A9P
notes: as for B1

Numbering of substitutions follows the chain as printed.

The experiment has as its target T1, 人源TSLP蛋白 (Thymic stromal lymphopoietin) (human, UniProt Q969D9 29-159).
T1 construct: also called 人源重组TSLP蛋白; TSLP重组蛋白
The experiment in a line: ELISA of E. coli crude extract on coated TSLP, anti-HA HRP; positive if OD more than 5 times the control well.
For the molecule B1, the binding result is recorded as “binds”.

Take B2: the binding result is “binds”. To B3 belongs “binds”; to B4, “binds”; to B5, “binds”. As to B6, the binding result was “binds”. The value for B7 was “binds”; that for B8 was “binds”; that for B9 was “binds”. As for B10, the binding result is reported as “binds”.

With B11, the binding result is given as “binds”. The value for B12 was “binds”; that for B13 was “binds”; that for B14 was “binds”.

Turning to B15, the binding result was “binds”. To B16 belongs “binds”; to B17, “binds”; to B18, “binds”.
